Source: article PMC7497807

How the values were obtained:
Test in all cases: fluorescence polarisation
FITC-CBX8 A335V peptide = target: FITC-CBX8 A335V peptide
BCOR (aa 1176–1225)-FITC = BCOR (aa 1176–1225)-FITC (UniProt Q6W2J9)
MBP-AF9 = target: MBP-AF9

Sequence of BCOR (aa 1176–1225)-FITC (Q6W2J9 1176-1225): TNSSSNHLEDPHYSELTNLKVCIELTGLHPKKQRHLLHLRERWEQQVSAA

MBP-AF9 (domain or fragment)
Kd (FITC-CBX8 A335V peptide): 12 nM
Kd (BCOR (aa 1176–1225)-FITC): 18 nM

unlabeled CBX8 A335V peptide
IC50 (MBP-AF9): 96 nM
